Laboratory results from patent publication US20240400722A1 (MILTENYI BIOTEC B V, published 2024).
Substitutions are numbered along the chain they refer to. Names and notes keep the numbering of the source.

B1: His tag-acVHH-WT anti-caffeine nanobody, soluble (VHH)
VHH: QVQLVESGGGLVQAGGSLRLSCTASGRTGTIYSMAWFRQAPGKEREFLATVGWSSGITYYMDSVKGRFTISRDKGKNTVYLQMDSLKPEDTAVYYCTATRAYSVGYDYWGQGTQVTVSS
notes: Expressed in E. coli; also called AB0; not shown: His tag
B2: M1 ΔAA displayed on yeast (VHH, not shown: large carriers; small tags and cut ends)
chain: B1 VHH with C22A, T50P, G52A, W53L, S54G, S55L, G56Q, I57S, C96A
notes: also called acVHH-M1 C22A C96A
B3: His tag-acVHH-V104D, soluble (VHH, not shown: small tags and cut ends)
VHH: B1 VHH with V104D
notes: also called AB1; Tag-V104D
B4: acVHH-V104D displayed on yeast (Aga2p-HA-tag-(Gly4Ser)3 linker-acVHH-V104D-c-myc tag) (VHH, not shown: large carriers; small tags and cut ends)
VHH: B1 VHH with V104D
B5: M1 ΔGW displayed on yeast (VHH, not shown: large carriers; small tags and cut ends)
chain: B1 VHH with C22G, T50P, G52A, W53L, S54G, S55L, G56Q, I57S, C96W
notes: also called acVHH-M1 C22G C96W
B6: M1 ΔAV displayed on yeast (VHH, not shown: large carriers; small tags and cut ends)
chain: B1 VHH with C22A, T50P, G52A, W53L, S54G, S55L, G56Q, I57S, C96V
notes: also called acVHH-M1 C22A C96V
B7: M1 ΔWA displayed on yeast (VHH, not shown: large carriers; small tags and cut ends)
chain: B1 VHH with C22W, T50P, G52A, W53L, S54G, S55L, G56Q, I57S, C96A
notes: also called acVHH-M1 C22W C96A
B8: M1 ΔFA displayed on yeast (VHH, not shown: large carriers; small tags and cut ends)
chain: B1 VHH with C22F, T50P, G52A, W53L, S54G, S55L, G56Q, I57S, C96A
notes: also called acVHH-M1 C22F C96A
B9: M1 ΔWP displayed on yeast (VHH, not shown: large carriers; small tags and cut ends)
chain: B1 VHH with C22W, T50P, G52A, W53L, S54G, S55L, G56Q, I57S, C96P
notes: also called acVHH-M1 C22W C96P
B10: M1 ΔAW displayed on yeast (VHH, not shown: large carriers; small tags and cut ends)
chain: B1 VHH with C22A, T50P, G52A, W53L, S54G, S55L, G56Q, I57S, C96W
notes: also called acVHH-M1 C22A C96W
B11: M1 ΔVA displayed on yeast (VHH, not shown: large carriers; small tags and cut ends)
chain: B1 VHH with C22V, T50P, G52A, W53L, S54G, S55L, G56Q, I57S, C96A
notes: also called acVHH-M1 C22V C96A

Assays:
[1] = molecular target: T1, acVHH-WT displayed on yeast (Aga2p-HA-tag-(Gly4Ser)3 linker-acVHH-WT-c-myc tag); assay: yeast surface display; 400 nM soluble acVHH-WT, caffeine titrated (data of FIG. 3I); mean ± S.D.
T1 construct: Yeast surface display fusion on S. cerevisiae EBY100
T1 sequence (chain, as listed by the source): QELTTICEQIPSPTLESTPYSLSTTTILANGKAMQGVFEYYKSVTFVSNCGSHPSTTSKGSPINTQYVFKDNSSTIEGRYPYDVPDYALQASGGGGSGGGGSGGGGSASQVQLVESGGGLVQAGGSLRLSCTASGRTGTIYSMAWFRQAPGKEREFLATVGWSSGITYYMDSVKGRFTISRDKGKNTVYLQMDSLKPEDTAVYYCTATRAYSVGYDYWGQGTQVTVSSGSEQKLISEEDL
From the text: (§1) Measured with yeast display and normalized to maximum binding signal (n=3, averages±standard deviations).

[2] = molecular target: B3; assay: yeast surface display, flow cytometry (n=1)
[3] = molecular target: T2, dfM1-1 displayed on yeast (Aga2p-HA-tag-(Gly4Ser)3 linker-dfM1-1-c-myc tag); assay: yeast surface display titration with soluble acVHH-V104D, 30 µM caffeine, signal normalised to the maximum
T2 construct: also called disulfide free M1 variant

[4] = molecular target: T3, dfM1-2 displayed on yeast (Aga2p-HA-tag-(Gly4Ser)3 linker-dfM1-2-c-myc tag); assay: as above
T3 construct: also called disulfide free M1 variant

[5] = molecular target: T4, acVHH-M1 displayed on yeast (Aga2p-HA-tag-(Gly4Ser)3 linker-acVHH-M1-c-myc tag); assay: as above
T4 construct: also called AB2

[6] = molecular target: T2, dfM1-1 displayed on yeast …; assay: yeast surface display titration with soluble acVHH-V104D, + caffeine (30 µM, data of FIG. 3H); mean ± S.D.
[7] = molecular target: T3, dfM1-2 displayed on yeast …; assay: as above
[8] = molecular target: T4, acVHH-M1 displayed on yeast …; assay: as above
[9] = molecular target: B4; assay: yeast surface display, flow cytometry; soluble acVHH-V104D with and without 10 µM caffeine
Experimental: (§2) The staining for flow cytometry characterization was performed in PBSA (PBS containing 15 μM bovine serum albumin). […] After a final washing step, the cells were analyzed with a CytoFLEX S flow cytometer (Beckman Coulter).

[10] = molecular target: T2, dfM1-1 displayed on yeast …; assay: yeast surface display; 400 nM soluble acVHH-V104D, caffeine titrated (data of FIG. 3I); mean ± S.D.
Experimental: (§3) Expression of the variants on yeast was carried out in SG-CAA as described above.
as §1

[11] = molecular target: T3, dfM1-2 displayed on yeast …; assay: as above
Experimental: as §3, §1

[12] = molecular target: T4, acVHH-M1 displayed on yeast …; assay: as above
Experimental: as §3, §1

[13] = molecular target: T1, acVHH-WT displayed on yeast …; assay: yeast surface display, flow cytometry; soluble acVHH-V104D with 10 µM compound or without
Experimental: Expression of the acVHH variants on yeast was induced by culturing the cells in SG-CAA medium (20 g/L galactose, 2 g/L glucose, 6.7 g/L yeast nitrogen base, 5 g/L bacto casamino acids, 10.2 g/L Na₂HPO₄*7 H₂O, 8.56 g/L NaH₂PO₄*H₂O) overnight at 20° C. and 180 rpm. Detection of full-length proteins on the surface of the cells was carried out by staining the cells with anti-c-myc AlexaFluor 488 (9E10, Thermo Fisher).

[14] = molecular target: B8; assay: yeast surface display, flow cytometry; soluble acVHH-V104D with and without 10 µM caffeine (n=1)
[15] = molecular target: B5; assay: as above
[16] = molecular target: B9; assay: as above
[17] = molecular target: B2; assay: as above
[18] = molecular target: B10; assay: as above
[19] = molecular target: B7; assay: as above
[20] = molecular target: B6; assay: as above
[21] = molecular target: B11; assay: as above
[22] = molecular target: B3; assay: yeast surface display, flow cytometry
Experimental: as §2

B1
EC50,YSD (caffeine concentration for half-maximal dimerisation) [1]: 4300 nM

B2
binding result [2]: no binding

B3
EC50 (read off the curve) [3]: ~20 nM | EC50 (read off the curve) [4]: ~20 nM | EC50 (read off the curve) [5]: ~30 nM | Kd [6]: 18.8 nM | Kd [7]: 21.8 nM | Kd [8]: 30 nM | binding result [9]: no binding (tested: 500 nM) | EC50,YSD (caffeine concentration for half-maximal dimerisation) [10]: 83000 nM | EC50,YSD (caffeine concentration for half-maximal dimerisation) [11]: 124000 nM | EC50,YSD (caffeine concentration for half-maximal dimerisation) [12]: 104000 nM | binding result [13]: no binding (tested: 500 nM) | binding result [14]: no binding (tested: 500 nM) | binding result [15]: no binding (tested: 500 nM) | binding result [16]: no binding (tested: 500 nM) | binding result [17]: no binding (tested: 500 nM) | binding result [18]: no binding (tested: 500 nM) | binding result [19]: no binding (tested: 500 nM) | binding result [20]: no binding (tested: 500 nM) | binding result [21]: no binding (tested: 500 nM)

B4
binding result [22]: no binding

B5
binding result [2]: no binding

B6
binding result [2]: no binding

B7
binding result [2]: no binding

B8
binding result [2]: no binding

B9
binding result [2]: no binding

B10
binding result [2]: no binding

B11
binding result [2]: no binding
